Measurements: patent publication US10647739B2, “Flavonoids O-A-glucosylated on the B cycle, method for the production thereof and uses” (Institut National de la Recherche Agronomique, priority 2014, dated 2020)
Values joined by “and” are separate entries in the source; they are usually repeats but may differ in a detail not shown here. Equal entries are not always repeated.

Tests used:
[1] = naringenin glucosylation acceptor reaction with recombinant glucansucrases (microplate screening); format: biochemical; conditions: sucrose 146 mM, naringenin 5 mM, 3% DMSO, 30° C., 24 h, HPLC-UV 340 nm peak areas
Experimental: (§1) The enzymatic extracts obtained are used to carry out the flavonoid glucosylation enzymatic screening reactions. The enzymatic activity of each centrifuged cell lysate is evaluated in the microplate format, by final weight after 30 minutes incubation in the presence of a final concentration of 146 mM of sucrose, by assaying the reducing sugars with 3,5-dinitrosalicylic acid (DNS). Finally, after dilution in ultrapure water, the absorbance is read at 540 nm.
(§2) The flavonoid acceptor reactions are then carried out in deep-well microplates, in a volume of 300 μl, at final concentrations of sucrose of 146 mM and of flavonoid of 2.5 mM (apigenin) or 5 mM (naringenin) (initially dissolved in 100% DMSO), and 140 μl of centrifuged cell lysate.
(§3) The final DMSO concentration in the reaction medium is 3% (v/v).
(§4) The incubation is carried out at 30° C. and at 700 rpm. After 24 hours, the enzymes are denatured at 95° C. for 15 minutes. These microplates are stored at −80° C. with a view to rapid evaluation of the flavonoid glucosylation by liquid-phase chromatography coupled to mass spectrometry (HPLC-MS or LC-MS).
(§5) With a view to their analyses by HPLC-MS, the extensively homogenized reaction media are diluted to 1/30th in DMSO. The separation of the flavonoids and of their glucosylated forms is carried out in reverse phase with a ProntoSlL Eurobond® 53×3.0 mm 120-3-C18-AQ column (porosity of 120 Å, particle size of 3 μm, C18 grafting, Bischoff Chromatography, Germany).
(§6) The flavonoid glucosylation efficiency was determined from the following formula: Glucosylation efficiency=(Σ(area of the peak of glucosylated flavonoid(s)))/(Σ(area of the peak of glucosylated flavonoid(s))+area of the peak of residual aglycone flavonoid)×100
The flavonoid glucosylation efficiency was determined from the formula set out in example 2. The flavonoid glucosylation efficiencies, expressed as a percentage, were calculated from the areas of the peaks of the various products analyzed, as described in example 1, by HPLC with a UV detector (λ340 nm), after 24 h of reaction.

[2] = apigenin glucosylation acceptor reaction with recombinant glucansucrases (microplate screening); format: biochemical; conditions: sucrose 146 mM, apigenin 2.5 mM, 3% DMSO, 30° C., 24 h, HPLC-UV 340 nm peak areas
Experimental: as §1, §2, §3, §4, §5, §6
The flavonoid glucosylation efficiencies, expressed as a percentage, were calculated from the areas of the peaks of the various products analyzed, as described in example 1, by HPLC with a UV detector (340 nm) after 24 h of reaction.

| Molecule | naringenin glucosylation efficiency [1] | apigenin glucosylation efficiency [2] | naringenin glucosylation efficiency ([1]; listed as A289A) | naringenin glucosylation efficiency ([1]; listed as D394D) | naringenin glucosylation efficiency ([1]; listed as F229F) | naringenin glucosylation efficiency ([1]; listed as F290F) | naringenin glucosylation efficiency ([1]; listed as I228I) | naringenin glucosylation efficiency ([1]; listed as I330I) | naringenin glucosylation efficiency ([1]; listed as R226R) | naringenin glucosylation efficiency ([1]; listed as R446R) | naringenin glucosylation efficiency ([1]; listed as V331V) | apigenin glucosylation efficiency ([2]; listed as A289A) | apigenin glucosylation efficiency ([2]; listed as D394D) | apigenin glucosylation efficiency ([2]; listed as F229F) | apigenin glucosylation efficiency ([2]; listed as F290F) | apigenin glucosylation efficiency ([2]; listed as I228I) | apigenin glucosylation efficiency ([2]; listed as I330I) | apigenin glucosylation efficiency ([2]; listed as R226R) | apigenin glucosylation efficiency ([2]; listed as V331V) |
| --- | --- | --- | --- | --- | --- | --- | --- | --- | --- | --- | --- | --- | --- | --- | --- | --- | --- | --- | --- |
| α-1,2 BrS: wild-type glucansucrase α-1,2 BrS, SEQ ID NO: 11 | 26.8% | 2.5% | – | – | – | – | – | – | – | – | – | – | – | – | – | – | – | – | – |
| ASNp WT: wild-type recombinant amylosucrase from Neisseria polysaccharea (protein, UniProt Q9ZEU2 1-636, looked up) Amylosucrase: MLTPTQQVGLILQYLKTRILDIYTPEQRAGIEKSEDWRQFSRRMDTHFPKLMNELDSVYGNNEALLPMLEMLLAQAWQSYSQRNSSLKDIDIARENNPDWILSNKQVGGVCYVDLFAGDLKGLKDKIPYFQELGLTYLHLMPLFKCPEGKSDGGYAVSSYRDVNPALGTIGDLREVIAALHEAGISAVVDFIFNHTSNEHEWAQRCAAGDPLFDNFYYIFPDRRMPDQYDRTLREIFPDQHPGGFSQLEDGRWVWTTFNSFQWDLNYSNPWVFRAMAGEMLFLANLGVDILRMDAVAFIWKQMGTSCENLPQAHALIRAFNAVMRIAAPAVFFKSEAIVHPDQVVQYIGQDECQIGYNPLQMALLWNTLATREVNLLHQALTYRHNLPEHTAWVNYVRSHDDIGWTFADEDAAYLGISGYDHRQFLNRFFVNRFDGSFARGVPFQYNPSTGDCRVSGTAAALVGLAQDDPHAVDRIKLLYSIALSTGGLPLIYLGDEVGTLNDDDWSQDSNKSDDSRWAHRPRYNEALYAQRNDPSTAAGQIYQGLRHMIAVRQSNPRFDGGRLVTFNTNNKHIIGYIRNNALLAFGNFSEYPQTVTAHTLQAMPFKAHDLIGGKTVSLNQDLTLQPYQVMWLEIA | 4.7±1.7% and 4.7% | 0.5±0.5% and 0.5% | 3.4% | 0.0% | 0.0% | 0.0% | 0.0% | 0.0% | 2.5% | 6.0% | 4.7% | 0.6% | 0.1% | 0.8% | 0.8% | 0.8% | 0.8% | 0.3% | 0.2% |
